The source of these data is patent US20140227291A1 (AbbVie / Abbott, published 2014).

One test has as its target T1, Abeta(20-42) globulomer (human).
T1 construct: Oligomer; also called amyloid-beta (20-42) globulomer
T1 peptide: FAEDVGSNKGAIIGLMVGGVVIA
The test can be described thus: dot blot, antigen dilution series on nitrocellulose, antibody 0.2 µg/ml, densitometry; reference antigen. The protocol: (§1) The dot blot was developed with 10 ml BM Blue POD Substrate for 10 min. The development was stopped by intense washing of the dot blot with H₂O. Quantitative evaluation was done based on a densitometric analysis (GS800 densitometer (BioRad) and software package Quantity one, Version 4.5.0 (Bio-Rad)) of the dot intensity. […] This threshold value was determined for every dot blot independently. The calculated value indicates the relation between recognition of Aβ(20-42) globulomer and the respective Aβ form for the given antibody.
(§2) The individual Aβ forms were applied in serial dilutions and incubated with the respective antibodies for immune reaction (1=Aβ(1-42) monomer, 0.1% NH₄OH; 2=Aβ(1-40) monomer, 0.1% NH₄OH; 3=Aβ(1-42) monomer, 0.1% NaOH; 4=Aβ(1-40) monomer, 0.1% NaOH; 5=Aβ(1-42) globulomer; 6=Aβ(12-42) globulomer; 7=Aβ(20-42) globulomer; 8=Aβ(1-42) fibril preparation; 9=sAPPα (Sigma); (first dot: 1 pmol)).

Test [1] deals with T2, Abeta(1-42) monomer in 0.1% NH4OH (human).
T2 construct: also called Abeta(1-42) monomer, 0.1% NH4OH
The test can be described thus: dot blot, antigen dilution series on nitrocellulose, antibody 0.2 µg/ml, densitometry. The protocol:
as §1, §2

Test [2] addresses T3, Abeta(12-42) globulomer (human).
T3 construct: Oligomer
T3 peptide: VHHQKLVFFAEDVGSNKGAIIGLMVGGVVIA
Described as above. As to the method:
as §1, §2

In test [3] the target is T4, Abeta(1-40) monomer in 0.1% NaOH (human).
T4 construct: also called Abeta(1-40) monomer, 0.1% NaOH
The test is described as above. As to the method:
as §1, §2

For test [4], the target named is T5, Abeta(1-42) monomer in 0.1% NaOH (human).
T5 construct: also called Abeta(1-42) monomer, 0.1% NaOH
Described as above. The protocol: as §1, §2

Test [5] concerns the target T6, Abeta(1-40) monomer in 0.1% NH4OH (human).
T6 construct: also called Abeta(1-40) monomer, 0.1% NH4OH
The description is as above. The protocol: as §1, §2

Test [6] addresses T7, Abeta(1-42) fibril preparation (human, UniProt P05067 672-713).
T7 construct: also called Abeta(1-42) fibrils
The description is as above. As to the method:
as §1, §2

The target in test [7] is T8, Abeta(1-42) globulomer (human, UniProt P05067 672-713).
T8 construct: also called 38/48-kDa Abeta(1-42) globulomer
Described as above. The protocol:
as §1, §2

Test [8] concerns the target T2, Abeta(1-42) monomer in 0.1% NH4OH. The test can be described thus: dot blot: antigen dilution series dotted on nitrocellulose, anti-mouse-IgG-POD detection. As to the method: (§3) In order to characterize the selectivity of monoclonal anti Aβ(20-42) globulomer antibodies, they were tested for binding to different Aβ-forms. To this end, serial dilutions of the individual Aβ(1-42) forms ranging from 100 pmol/μl to 0.00001 pmol/μl in PBS supplemented with 0.2 mg/ml BSA were prepared. 1 μl of each dilution was blotted onto a nitrocellulose membrane. Detection was performed by incubating with the corresponding antibody (0.2 μg/ml) followed by immunostaining using Peroxidase conjugated anti-mouse-IgG and the staining reagent BM Blue POD Substrate (Roche).
as §2

In test [9] the target is T3, Abeta(12-42) globulomer. The test is described as above. As to the method:
as §3, §2

Test [10] concerns the target T4, Abeta(1-40) monomer in 0.1% NaOH. Described as above. As to the method:
as §3, §2

Test [11] deals with T5, Abeta(1-42) monomer in 0.1% NaOH. The description is as above. As to the method: as §3, §2
Test [12] deals with T6, Abeta(1-40) monomer in 0.1% NH4OH. The test is described as above. As to the method:
as §3, §2

Test [13] concerns the target T7, Abeta(1-42) fibril preparation. Described as above. As to the method:
as §3, §2

In test [14] the target is T8, Abeta(1-42) globulomer. Described as above. The protocol: as §3, §2
Test [15] deals with T9, sAPPalpha (Sigma cat. no. S9564) (UniProt P05067-4 18-612, limits assumed).
T9 construct: Bought protein; also called sAPPα; soluble Abeta precursor
The test is described as above. As to the method: as §3, §2

For test [16], the target named is T9, sAPPalpha (Sigma cat. no. S9564). The test can be described thus: dot blot, antigen dilution series on nitrocellulose (first dot 1 pmol), antibody 0.2 µg/ml, densitometry.

T6 sequence (peptide, as listed by the source): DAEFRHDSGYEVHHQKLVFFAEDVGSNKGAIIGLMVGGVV
T4 sequence (peptide, as listed by the source): as above
T9 sequence (P05067 other isoform, or with tags, fused parts or gaps limits assumed): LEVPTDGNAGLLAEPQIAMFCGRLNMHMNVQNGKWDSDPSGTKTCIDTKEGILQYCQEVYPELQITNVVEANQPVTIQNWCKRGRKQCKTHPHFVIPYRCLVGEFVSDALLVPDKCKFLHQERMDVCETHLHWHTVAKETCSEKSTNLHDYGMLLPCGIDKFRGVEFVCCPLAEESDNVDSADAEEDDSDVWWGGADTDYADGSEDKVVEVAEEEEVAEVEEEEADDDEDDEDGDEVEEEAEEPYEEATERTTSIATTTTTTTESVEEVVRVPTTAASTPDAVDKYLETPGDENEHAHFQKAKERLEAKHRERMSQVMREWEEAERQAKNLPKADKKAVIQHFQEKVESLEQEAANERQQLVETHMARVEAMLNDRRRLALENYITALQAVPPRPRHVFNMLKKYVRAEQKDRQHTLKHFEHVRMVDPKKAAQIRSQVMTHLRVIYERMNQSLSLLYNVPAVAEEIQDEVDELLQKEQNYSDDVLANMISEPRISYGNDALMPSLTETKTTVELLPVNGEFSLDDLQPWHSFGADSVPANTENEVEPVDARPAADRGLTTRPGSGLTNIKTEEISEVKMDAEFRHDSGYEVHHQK

B1: murine monoclonal antibody m4C9 (antibody, V domains shown)
VH: QVQLQQPGAELVKPGASVKLSCKAPGYTFTSYWMHWVKQRPGQGLEWIGRIDPKSGDTKYTEKFKSKATLTVDKPSSTAYMQLSSLTSEDSAVYYCTTMSKLSGTHAWFAYWGQGTLVTVSA
VL: DIKMTQSPSSMYASLGERVTITCKASQDINSYLTWFQQKPGKSPKTLIYRANRLVDGVPSRFSGSGSGQDYSLTISSLEYEDMGIYYCLQYDEFPLTFGAGTKLELK
notes: Murine monoclonal antibody from hybridoma after immunization of mice with Abeta(20-42) globulomer; also called mAb m4C9; mAb 4C9
Consider B1, for which the “dot blot ratio (recognition of Abeta(20-42) globulomer relative to this Abeta form)” value in the test with Abeta(20-42) globulomer amounted to 1; in test [1] it was 36000; with Abeta(12-42) globulomer [2] it was 60000; in test [3], 110000; in test [4], 39500; in [5], 27300. The “dot blot ratio (recognition of Abeta(20-42) globulomer relative to this Abeta form)” value in test [6] is 32600; with Abeta(1-42) globulomer [7] it was 30000. Besides, the binding result (in [8]; with Abeta(12-42) globulomer [9]; in test [10]; in test [11]; in [12]; in test [13]) was “no binding” in each case. Further, the binding result (with Abeta(1-42) globulomer [14]; in test [15]) was “no binding” each time.

B2: murine monoclonal antibody m10B3 (antibody, V domains shown)
VH: EVKLVESGGGLVQPGGSRKLSCAASGFTFSDYEMVWVRQAPGEGLEWVAYISSGSRTIHYADTVKGRFTISRDNPKNTLFLQMSSLRSEDTAMYYCARTLLRLHFDYWGQGTILTVSS
VL: not shown
notes: Murine monoclonal antibody from hybridoma after immunization of mice with Abeta(20-42) globulomer; also called mAb m10B3; mAb 10B3
With B2, the binding result (in test [8]; in the test with Abeta(12-42) globulomer [9]; in [10]; in [11]; in test [12]; in test [13]) was “no binding” throughout. For the same molecule, the binding result (with Abeta(1-42) globulomer [14]; in test [15]) was “no binding” in each case.

B3: Anti-Abeta monoclonal antibody clone 6E10 (Covance cat. no. SIG-39320) (antibody, V domains shown)
VH: EVQLQQSGAELVKPGASVKLCTASGFNIKDTYIHWVKQRPEQGLEWIGRFDPVNVNTRYDSRFRGKATITSDASSNTAYLHLNSLTSEDTAVYYCSRSYYNGRRRFTYWGQGTLVTVSA
VL: DIVMTQSPSSLTVTAGEKVALTCKASQSLLSSGNQKNYLTWYQQKPGQPPKLLIYWASIRESGVPDRFTGSGSGTFFTLTISSVQAEDLAVYYCQNDYNYPFTFGSGTKLEIK
As for B3, the “dot blot ratio (recognition of Abeta(20-42) globulomer relative to this Abeta form)” value in test [16] turned out to be 0.2; with Abeta(20-42) globulomer, 1; in the test with Abeta(12-42) globulomer [2], 6.
